# Patent US6177557, “High affinity ligands of basic fibroblast growth factor and thrombin” (NeXstar Pharmaceuticals, Inc.)
# Legend:
# [1] = target: T1, basic fibroblast growth factor (bFGF) (UniProt P09038 P09038:135-288); assay: filter; PBS, 0.01% HSA, 1 mM DTT, 37 C; +/-0.3; conditions: tags: Bachem California, 18 kDa, 154 aa; 125I-labeled for receptor assays
# Procedure: (§1) This affinity screening allowed identification of those ligands with highest affinity for bFGF. Binding of a group of these ligands was analyzed over a range of bFGF concentrations (FIG. 5) and their dissociation constants.(Kd's) were determined as described (Jellinek et al. (1993) Proc. Natl. Acad. Sci. USA 90:11227–11231) (Table IX). RNA concentrations were determined from their absorbance reading at […] (and were typically <100 pM). Binding reactions were done at 37° C. in phosphate buffered saline containing 0.01% human serum albumin and 1 mM DTT.
# thrombin (alpha) [2] = target: T2, thrombin (alpha) (human, UniProt P00734;P00734 P00734:328-363,P00734:364-622); assay: filter; 50 mM Tris pH 7.5, 100 mM NaCl, 1 mM MgCl2, 37 C
# [3] = target: T1, basic fibroblast growth factor (bFGF); assay: filter; PBS; conditions: tags: Bachem California, 18 kDa, 154 aa; 125I-labeled for receptor assays; label: 32P
# Procedure: (§2) In order to eliminate higher order structures, all DNA solutions were heated to 90° C. in PBS for 2–3 minutes and cooled on ice prior to incubation with protein. Relative binding affinity of individual ligands to bFGF cannot be predicted from sequence information. The majority of sequence isolates were therefore screened for their ability to bind to bFGF by measuring the fraction of radiolabeled DNA bound to nitrocellulose filters following incubation with 1 nM protein. […] Binding of these select isolates was then analyzed in more detail.
# [4] = target: vascular endothelial growth factor (VEGF) (UniProt P15692-4 P15692-4:27-191); assay: filter; specificity, data not shown; conditions: chain copies: 2; label: 32P
# acidic FGF = acidic FGF (UniProt P05230 P05230:16-155); assay: filter; specificity, data not shown; conditions: label: 32P
# antithrombin III = antithrombin III (UniProt P01008 P01008:33-464); assay: filter; specificity, data not shown; conditions: label: 32P
# thrombin (alpha) [5] = target: T2, thrombin (alpha); assay: filter; specificity, data not shown
# [6] = target: T1, basic fibroblast growth factor (bFGF); assay: filter; conditions: tags: Bachem California, 18 kDa, 154 aa; 125I-labeled for receptor assays
# Procedure: as §2
# Those ligands are M225, M19, m234, M235, and D12 (SEQ ID NOS:359, 353, 387, 360, 332). The minimum size of the region necessary for binding was determined to be 35 bases for M225, M19 and D12 (See Truncations, Table XXI M225t3 (SEQ ID NO:364), M19t2 (SEQ ID NO:365), D12t2 (SEQ ID NO:341)). The ligand with the smallest essential sequence, m234, was isolated from Family 2, Experiment 3 and contains 24 nucleotides (m234t2 (SEQ ID NO:391)). The truncated ligands were tested for binding to bFGF. After truncation, ligands M225t3, M19t2, D12t2, M235t2, and m234t2 have kd values of 0.7 nM, 1 nM, 1 nM, 1 nM, and 6 nM respectively (Table XXII). All five of the truncated molecules lost some of their affinity for bFGF in comparison to the full length ligands. The binding affinity is regained when an additional G-C base pair is added to the blunt end stem of M225t3. This molecule is termed M225t3GC (SEQ ID NO:443). The binding of M225t3GC is 0.2 nM compared to 0.7 nM for M225t3 without the additional base pair (Table XXII).
# [7] = target: T1, basic fibroblast growth factor (bFGF); assay: filter; PBS, 0.01% HSA, 1 mM DTT, 37 C; +/-0.5; conditions: tags: Bachem California, 18 kDa, 154 aa; 125I-labeled for receptor assays
# Procedure: as §1
# T1 sequence (P09038 135-288, one chain of several): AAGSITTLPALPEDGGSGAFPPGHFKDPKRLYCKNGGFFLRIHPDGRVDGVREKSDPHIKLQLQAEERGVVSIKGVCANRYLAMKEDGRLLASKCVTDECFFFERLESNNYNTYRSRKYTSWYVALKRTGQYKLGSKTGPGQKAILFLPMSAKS
# Chain of antithrombin III (P01008 33-464, one chain of several): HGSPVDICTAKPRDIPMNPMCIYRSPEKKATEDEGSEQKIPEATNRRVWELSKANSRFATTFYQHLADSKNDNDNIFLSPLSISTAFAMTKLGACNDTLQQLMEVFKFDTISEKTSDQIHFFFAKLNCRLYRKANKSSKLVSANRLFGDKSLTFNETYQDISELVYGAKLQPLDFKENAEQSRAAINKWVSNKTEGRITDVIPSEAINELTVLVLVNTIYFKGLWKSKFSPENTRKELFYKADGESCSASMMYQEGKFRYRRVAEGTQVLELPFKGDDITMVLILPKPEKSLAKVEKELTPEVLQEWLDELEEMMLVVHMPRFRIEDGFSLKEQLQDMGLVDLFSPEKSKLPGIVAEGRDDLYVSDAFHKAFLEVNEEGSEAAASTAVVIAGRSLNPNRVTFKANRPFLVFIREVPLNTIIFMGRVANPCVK
# Chain of acidic FGF (P05230 16-155, one chain of several): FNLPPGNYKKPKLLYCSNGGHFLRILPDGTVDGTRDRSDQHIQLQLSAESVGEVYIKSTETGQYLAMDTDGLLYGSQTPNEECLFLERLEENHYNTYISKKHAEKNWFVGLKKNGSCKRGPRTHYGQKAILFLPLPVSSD
# Chain of vascular endothelial growth factor (VEGF) (P15692 other isoform, or with tags, fused parts or gaps): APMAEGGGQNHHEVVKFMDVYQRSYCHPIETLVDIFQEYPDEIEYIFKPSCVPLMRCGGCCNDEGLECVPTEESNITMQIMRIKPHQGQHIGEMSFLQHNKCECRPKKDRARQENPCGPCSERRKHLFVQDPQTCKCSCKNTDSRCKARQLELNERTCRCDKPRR
binder,measurement,setting,value
"2'-NH2 58A (ssRNA, 2'-NH2 pyrimidines) RNA: GGGAGACAAGAAUAACGCUCAAUUAACGGCGUGGUCCGAGGGUGGCGAGUACUUCGACAGGAGGCUCACAACAGGC",Kd,[1],1.4 nM
60-27 (ssDNA) DNA: AGATGCCTGTCGAGCATGCTGGCGTCCGATGATTCAGGTCGTGGTAGGCATTGAGGGATGGGGTCCTGTGGGACTGGCCTGTAGCTAAACTGCTTTGTCGACGGG,Kd,thrombin (alpha) [2],0.96 nM
M17 (ssDNA) DNA: GGGAGGACGATGCGGGGGGCTTTGCAAAAATTGTTAAATCTACCCCAGACGACGACGGGGA,Kd,[3],6.9 nM
30-35 (ssDNA) DNA: AGATGCCTGTCGAGCATGCTGGGAGTGGTAGGAGTAGGGTTGGAGCCGTAGTAGCTAAACTGCTTTGTCGACGGG,Kd,thrombin (alpha) [2],1.4 nM
60-18 (ssDNA) DNA: AGATGCCTGTCGAGCATGCTCTTTGGAGACAGTCCGTGGTAGGGCAGGTTGGGGTGACTTCGTGGAAGAAGCGAGACGGTGTAGCTAAACTGCTTTGTCGA,Kd,thrombin (alpha) [2],0.92 nM
5A (ssRNA) RNA: GGGAGCUCAGAAUAAACGCUCAAAUCUCCUCCCGUCGAAGCUAACCUGGCCACUUCGACAUGAGGCCCGGAUCCGGC,Kd,[4],> 300 nM
same,Kd,acidic FGF,> 300 nM
same,Kd,antithrombin III,> 300 nM
same,Kd,thrombin (alpha) [5],> 300 nM
GCGGGGCTCTGCAAAGGACACAGGTCCTACGCATCAG (ssDNA) [M235t2],Kd,[6],1 nM
30-14 (ssDNA) DNA: AGATGCCTGTCGAGCATGCTGTTGTGGTAGGGTTAGGGATGGTAGCGGTTGTAGCTAAACTGCTTTGTCGACGGG,Kd,thrombin (alpha) [2],1 nM
M19 (ssDNA) DNA: GGGAGGACGATGCGGGGCTATGTAAATTACTGCTGTACTACGCATCAGACGACGACGGGGA,Kd,[3],0.3 nM
26A (ssRNA) RNA: GGGAGCUCAGAAUAAACGCUCAACGUCAGAAGGCAACGUAUAGGCAAGCACACUUCGACAUGAGGCCCGGAUCCGGC,Kd,[4],> 300 nM
same,Kd,acidic FGF,> 300 nM
same,Kd,antithrombin III,> 300 nM
same,Kd,thrombin (alpha) [5],> 300 nM
AGGCCAGGGCTATGCAAATCGCGGCGCCTATGGCC (ssDNA) [D12t2],Kd,[6],1 nM
CGAGGAGCTTTAGCGCCACAGGTT (ssDNA) [m234t2],Kd,[6],6 nM
M225 (ssDNA) DNA: GGGAGGACGATGCGGGGCTACGTACCGGGGCTTTGTAAAACCCCGCAGACGACGACGGGGA,Kd,[3],0.1 nM
GCGGGGCTATGTAAATTACTGCTGTACTACGCATC (ssDNA) [M19t2],Kd,[6],1 nM
"2'-NH2 53A (ssRNA, 2'-NH2 pyrimidines) RNA: GGGAGACAAGAAUAACGCUCAAUGAGGAUCGGAUGGGGAGCAGGCGGAGGAAUUCGACAGGAGGCUCACAACAGGC",Kd,[1],1.5 nM
CAGTCCGTGGTAGGGCAGGTTGGGGTGACTTCGTGGAA (ssDNA) [60-18(38)],Kd,thrombin (alpha) [2],1.9 nM
"2'-NH2 47B (ssRNA, 2'-NH2 pyrimidines) RNA: GGGAGGACGAUGCGGAGGGUGGCUGGGAGGACCCGCGGUGAAUCGGUAGCACAGUGAUGUUCGGUCAGACGACUCGCCCGA",Kd,[1],2.9 nM
"2'-NH2 72B (ssRNA, 2'-NH2 pyrimidines) RNA: GGGAGGACGAUGCGGCUCAGCAUCCAGGAAGGGGACUUGGUAGGGCACCAUCGAGAUCUUGGCGUCAGACGACUCGCCCGA",Kd,[7],3.4 nM
"2'-NH2 52B (ssRNA, 2'-NH2 pyrimidines) RNA: GGGAGGACGAUGCGGGGAGGGGCAGGUUCGAUGCGGGAGCGACUGACCACGAGAAAUGUGCGGGUCAGACGACUCGCCCGA",Kd,[1],2.3 nM
m224 (ssDNA) DNA: GGGAGGACGATGCGGCACCGAGGAATAACTGACGCCAGGCTGGCGCAGACGACGACGGGGA,Kd,[3],1.5 nM
60-7 (ssDNA) DNA: AGATGCCTGTCGAGCATGCTGGCGGCGTTGGTGTAGTGGCGCACTGTGGTTGGGCGGAGAGGCTAGGAGTGCATGATGCCGTAGCTAAACTGCTTTGTCGACGGG,Kd,thrombin (alpha) [2],2.5 nM
"2'-NH2 49A (ssRNA, 2'-NH2 pyrimidines) RNA: GGGAGACAAGAAUAACGCUCAAAUGGUGUGUGGAAGACAGUGGGUGGUUGCAUUCGACAGGAGGCUCACAACAGGC",Kd,[1],1.4 nM
M235 (ssDNA) DNA: GGGAGGACGATGCGGGGCTCTGCAAAGGACACAGGTCCTACGCATCAGACGACGACGGGGA,Kd,[3],0.2 nM
GGCGGGGCTACGTACCGGGGCTTTGTAAAACCCCGCC (ssDNA) [M225t3GC],Kd,[6],0.2 nM
7A (ssRNA) RNA: GGGAGCUCAGAAUAAACGCUCAAUCGGCGAGCUAACCAAGACACUCGCUGCACUUCGACAUGAGGCCCGGAUCCGGC,Kd,[4],> 300 nM
same,Kd,acidic FGF,> 300 nM
same,Kd,antithrombin III,> 300 nM
same,Kd,thrombin (alpha) [5],> 300 nM
"2'-NH2 22B (ssRNA, 2'-NH2 pyrimidines) RNA: GGGAGGACGAUGCGGCGUGGUUCCGUGGGUGGUGAGAUGAGACUUAAUCAGUUCGUAGACCGGUCAGACGACUCGCCCGA",Kd,[7],2.8 nM
"2'-NH2 54A (ssRNA, 2'-NH2 pyrimidines) RNA: GGGAGACAAGAAUAACGCUCAAACUGUUGUGUGGAAGACAGCGGGUGGUUGAUUCGACAGGAGGCUCACAACAGGC",Kd,[1],1.7 nM
30-8 (ssDNA) DNA: AGATGCCTGTCGAGCATGCTGTGAATAGGTAGGGTCGGATGGGCTACGGTGTAGCTAAACTGCTTTGTCGACGGG,Kd,thrombin (alpha) [2],0.4 nM
30-6 (ssDNA) DNA: AGATGCCTGTCGAGCATGCTACACCCGTGGTAGGGTAGGATGGGGTGGTCGTAGCTAAACTGCTTTGTCGACGGG,Kd,thrombin (alpha) [2],1.2 nM
m234 (ssDNA) DNA: GGGAGGACGATGCGGCCCGAGGAGCTTTAGCGCCACAGGTTTGTGCAGACGACGACGGGGA,Kd,[3],0.7 nM
m206 (ssDNA) DNA: GGGAGGACGATGCGGACCTGGTGGCTGTGCTTATGTCCCCCTCATCAGACGACGACGGGGA,Kd,[3],1.8 nM
30-16 (ssDNA) DNA: AGATGCCTGTCGAGCATGCTGCCGCTACGAGGGTAGGTGTGGATGCTGCCGTAGCTAAACTGCTTTGTCGACGGG,Kd,thrombin (alpha) [2],9.4 nM
